# Laboratory results: article PMC10511499, “Conserved roles for the dynein intermediate chain and Ndel1 in assembly and activation of dynein” (Nature Communications, 2023)
# B1: yeast Ndl1 coiled-coil domain (Ndl1^CC, residues 2-132) (domain or fragment, S. cerevisiae, UniProt Q06568 2-132, looked up)
# chain: VPNLDLETAIQIISSLETQLSELEGATKEYENDLEQVISKLKSDLLESQQQNKCNKKQITDLEIQVDELENENIQLRNKIETLQLESDRRLERNVLLEHELLDTKEALQKLRVSKEEATSGETRRNTRSLP
# notes: Ndl1, S. cerevisiae, coiled-coil domain, residues 2-132; No cleavage of the tags is described; also called StrepII-sfGFP-Ndl1^CC; source: E. coli BL21-CodonPlus (DE3)-RIPL, purified (Strep-tactin XT, SEC)
# B2: human Ndel1 coiled-coil domain (Ndel1^CC, residues 1-195) (domain or fragment, UniProt Q9GZM8 1-195, looked up)
# chain: MDGEDIPDFSSLKEETAYWKELSLKYKQSFQEARDELVEFQEGSRELEAELEAQLVQAEQRNRDLQADNQRLKYEVEALKEKLEHQYAQSYKQVSVLEDDLSQTRAIKEQLHKYVRELEQANDDLERAKRATIVSLEDFEQRLNQAIERNAFLESELDEKESLLVSVQRLKDEARDLRQELAVRERQQEVTRKSA
# notes: Ndel1, human, coiled-coil domain, residues 1-195; also called NudEL^CC; source: E. coli BL21-CodonPlus (DE3)-RIPL, purified (Strep-tactin XT, HiTrap Q, SEC)
# Legend:
# [1] = molecular target: T1, yeast dynein complex, wild type (Dyn1, Pac11, Dyn3, Dyn2) (S. cerevisiae, UniProt P36022 1-4092; P40960 1-533; Q04949 1-312; Q02647 1-92, JF503-, JFX549- or JFX646-HaloTag ligand on the HaloTag); assay: TIRF microscopy microtubule recruitment assay; yeast proteins; dynein on taxol-stabilised microtubules held by anti-tubulin antibody; fluorescent partner flowed in, TEV buffer with 1 mM DTT, 5-10 min; intensity along microtubules; details: both partners purified
# T1 construct: dynein heavy chain Dyn1, S. cerevisiae; dynein intermediate chain Pac11, S. cerevisiae; dynein light-intermediate chain Dyn3, S. cerevisiae; dynein light chain Dyn2, S. cerevisiae; also called WT dynein; HaloTag-Dyn1 complex; source: S. cerevisiae, all genes overexpressed from GAL1p; purified (IgG sepharose, TEV elution); not shown: 8His (also printed 6xHis), N-terminal, cleaved; ZZ, N-terminal, …
# T1 sequence (P36022 whole entry, chain 1 of 4): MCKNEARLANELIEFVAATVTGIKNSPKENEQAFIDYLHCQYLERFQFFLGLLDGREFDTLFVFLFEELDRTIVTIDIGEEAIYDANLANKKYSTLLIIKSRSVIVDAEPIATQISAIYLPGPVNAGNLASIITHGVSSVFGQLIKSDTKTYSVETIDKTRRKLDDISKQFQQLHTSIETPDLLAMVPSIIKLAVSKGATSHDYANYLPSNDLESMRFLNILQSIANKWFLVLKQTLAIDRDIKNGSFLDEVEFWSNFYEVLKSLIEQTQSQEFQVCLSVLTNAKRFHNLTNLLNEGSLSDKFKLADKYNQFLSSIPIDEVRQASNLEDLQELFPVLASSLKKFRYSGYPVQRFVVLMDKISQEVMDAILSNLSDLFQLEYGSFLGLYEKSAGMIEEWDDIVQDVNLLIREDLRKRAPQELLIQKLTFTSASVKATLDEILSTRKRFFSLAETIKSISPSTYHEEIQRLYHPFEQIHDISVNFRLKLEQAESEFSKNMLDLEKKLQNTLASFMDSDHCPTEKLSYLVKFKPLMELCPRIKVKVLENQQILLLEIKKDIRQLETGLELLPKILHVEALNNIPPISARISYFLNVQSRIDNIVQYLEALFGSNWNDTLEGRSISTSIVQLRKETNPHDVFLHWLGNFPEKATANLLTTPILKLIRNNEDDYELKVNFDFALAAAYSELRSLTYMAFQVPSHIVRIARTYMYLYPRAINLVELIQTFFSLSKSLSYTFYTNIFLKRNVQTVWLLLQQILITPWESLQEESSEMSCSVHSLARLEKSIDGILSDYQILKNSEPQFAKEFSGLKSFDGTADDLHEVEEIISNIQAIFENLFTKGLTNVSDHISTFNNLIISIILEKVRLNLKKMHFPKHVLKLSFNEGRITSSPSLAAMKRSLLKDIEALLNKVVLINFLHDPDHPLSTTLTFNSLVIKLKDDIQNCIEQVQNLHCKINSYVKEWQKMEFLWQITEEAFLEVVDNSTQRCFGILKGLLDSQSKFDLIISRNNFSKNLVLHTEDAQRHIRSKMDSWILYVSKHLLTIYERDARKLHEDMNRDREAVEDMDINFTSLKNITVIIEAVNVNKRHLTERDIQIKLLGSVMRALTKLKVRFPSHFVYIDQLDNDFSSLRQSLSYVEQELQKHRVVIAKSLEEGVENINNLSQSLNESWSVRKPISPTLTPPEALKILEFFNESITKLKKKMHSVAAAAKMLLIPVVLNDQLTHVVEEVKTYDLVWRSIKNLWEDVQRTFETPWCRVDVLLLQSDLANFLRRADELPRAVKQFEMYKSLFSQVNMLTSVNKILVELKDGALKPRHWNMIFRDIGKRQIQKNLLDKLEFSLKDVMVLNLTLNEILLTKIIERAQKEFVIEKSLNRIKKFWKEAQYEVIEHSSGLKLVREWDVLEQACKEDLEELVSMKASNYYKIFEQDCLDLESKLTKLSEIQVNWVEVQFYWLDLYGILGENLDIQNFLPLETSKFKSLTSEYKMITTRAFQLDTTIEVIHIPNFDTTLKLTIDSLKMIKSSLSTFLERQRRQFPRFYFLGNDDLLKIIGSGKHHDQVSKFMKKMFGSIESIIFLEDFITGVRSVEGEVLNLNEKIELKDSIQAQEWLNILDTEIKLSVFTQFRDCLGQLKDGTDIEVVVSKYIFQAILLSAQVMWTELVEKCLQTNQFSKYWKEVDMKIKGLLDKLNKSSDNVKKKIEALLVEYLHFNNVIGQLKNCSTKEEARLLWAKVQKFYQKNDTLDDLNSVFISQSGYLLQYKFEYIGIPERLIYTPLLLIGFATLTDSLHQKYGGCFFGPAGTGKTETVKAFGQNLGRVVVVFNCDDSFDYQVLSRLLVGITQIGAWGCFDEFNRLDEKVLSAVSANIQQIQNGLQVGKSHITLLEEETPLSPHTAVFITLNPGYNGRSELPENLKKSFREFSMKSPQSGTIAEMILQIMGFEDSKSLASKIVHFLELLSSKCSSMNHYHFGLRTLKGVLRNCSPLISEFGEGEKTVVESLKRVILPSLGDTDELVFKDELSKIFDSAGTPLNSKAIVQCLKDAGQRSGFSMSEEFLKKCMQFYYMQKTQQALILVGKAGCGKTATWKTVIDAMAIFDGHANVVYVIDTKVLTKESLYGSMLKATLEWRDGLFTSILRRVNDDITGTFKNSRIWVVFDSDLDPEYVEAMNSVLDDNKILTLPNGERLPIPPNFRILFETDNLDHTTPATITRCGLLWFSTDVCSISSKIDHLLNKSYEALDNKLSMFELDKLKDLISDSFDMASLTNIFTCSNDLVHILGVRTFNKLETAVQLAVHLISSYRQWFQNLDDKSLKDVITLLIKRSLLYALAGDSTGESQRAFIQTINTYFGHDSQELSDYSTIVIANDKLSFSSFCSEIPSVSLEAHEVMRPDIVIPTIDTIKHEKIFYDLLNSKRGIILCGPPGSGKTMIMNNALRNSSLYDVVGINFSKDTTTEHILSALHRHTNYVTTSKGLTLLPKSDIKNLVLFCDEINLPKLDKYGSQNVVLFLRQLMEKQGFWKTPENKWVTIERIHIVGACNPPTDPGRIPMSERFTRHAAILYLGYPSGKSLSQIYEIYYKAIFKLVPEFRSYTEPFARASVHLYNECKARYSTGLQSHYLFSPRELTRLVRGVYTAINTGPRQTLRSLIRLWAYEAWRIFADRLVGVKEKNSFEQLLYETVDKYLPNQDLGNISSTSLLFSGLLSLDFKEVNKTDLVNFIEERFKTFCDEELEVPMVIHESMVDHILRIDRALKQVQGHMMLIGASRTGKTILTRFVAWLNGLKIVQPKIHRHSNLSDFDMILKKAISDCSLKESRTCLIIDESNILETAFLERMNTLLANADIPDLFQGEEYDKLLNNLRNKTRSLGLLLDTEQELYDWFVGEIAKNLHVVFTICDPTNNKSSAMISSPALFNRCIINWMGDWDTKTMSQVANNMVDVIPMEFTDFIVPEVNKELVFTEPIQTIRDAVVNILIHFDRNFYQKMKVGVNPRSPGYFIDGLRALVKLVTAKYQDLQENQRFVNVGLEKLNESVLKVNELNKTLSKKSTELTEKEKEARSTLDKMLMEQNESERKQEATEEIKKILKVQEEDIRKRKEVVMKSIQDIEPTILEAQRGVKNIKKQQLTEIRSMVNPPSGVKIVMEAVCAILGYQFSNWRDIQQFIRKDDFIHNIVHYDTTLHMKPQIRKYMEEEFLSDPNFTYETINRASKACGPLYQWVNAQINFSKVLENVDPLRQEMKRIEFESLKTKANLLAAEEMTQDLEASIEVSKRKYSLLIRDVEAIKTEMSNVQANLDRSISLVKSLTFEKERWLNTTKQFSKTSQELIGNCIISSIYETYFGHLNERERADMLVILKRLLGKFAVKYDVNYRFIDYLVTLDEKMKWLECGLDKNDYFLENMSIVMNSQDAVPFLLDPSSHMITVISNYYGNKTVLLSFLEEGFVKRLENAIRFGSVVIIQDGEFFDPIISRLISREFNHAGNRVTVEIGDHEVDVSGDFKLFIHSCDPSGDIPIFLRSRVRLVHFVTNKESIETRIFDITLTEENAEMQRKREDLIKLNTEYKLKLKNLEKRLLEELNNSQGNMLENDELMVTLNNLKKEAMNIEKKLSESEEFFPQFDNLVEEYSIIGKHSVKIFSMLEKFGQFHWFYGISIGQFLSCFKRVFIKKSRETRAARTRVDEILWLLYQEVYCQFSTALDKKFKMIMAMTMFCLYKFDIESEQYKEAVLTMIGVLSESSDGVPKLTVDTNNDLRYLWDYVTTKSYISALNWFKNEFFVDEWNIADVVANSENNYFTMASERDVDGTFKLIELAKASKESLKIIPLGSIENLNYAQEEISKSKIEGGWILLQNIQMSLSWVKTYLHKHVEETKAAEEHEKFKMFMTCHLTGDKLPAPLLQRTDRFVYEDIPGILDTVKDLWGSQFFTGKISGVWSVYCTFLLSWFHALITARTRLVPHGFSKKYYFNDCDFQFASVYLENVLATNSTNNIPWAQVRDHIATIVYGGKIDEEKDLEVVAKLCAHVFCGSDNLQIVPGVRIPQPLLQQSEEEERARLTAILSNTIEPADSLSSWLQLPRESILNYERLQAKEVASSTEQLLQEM
# T1 sequence (P40960 whole entry, chain 2 of 4): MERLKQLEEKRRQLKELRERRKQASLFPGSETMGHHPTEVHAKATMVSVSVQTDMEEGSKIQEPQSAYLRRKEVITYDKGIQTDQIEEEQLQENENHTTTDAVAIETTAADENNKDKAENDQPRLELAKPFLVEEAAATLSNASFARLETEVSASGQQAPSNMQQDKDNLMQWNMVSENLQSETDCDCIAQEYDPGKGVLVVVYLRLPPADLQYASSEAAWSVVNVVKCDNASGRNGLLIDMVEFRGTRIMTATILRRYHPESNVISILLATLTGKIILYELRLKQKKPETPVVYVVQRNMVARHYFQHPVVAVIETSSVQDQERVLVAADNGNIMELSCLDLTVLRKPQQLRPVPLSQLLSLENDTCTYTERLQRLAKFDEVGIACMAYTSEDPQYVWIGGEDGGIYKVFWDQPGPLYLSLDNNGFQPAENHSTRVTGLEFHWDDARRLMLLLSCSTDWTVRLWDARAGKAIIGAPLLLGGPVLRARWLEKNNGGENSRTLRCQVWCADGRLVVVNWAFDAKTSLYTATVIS
# T1 sequence (Q04949 whole entry, chain 3 of 4): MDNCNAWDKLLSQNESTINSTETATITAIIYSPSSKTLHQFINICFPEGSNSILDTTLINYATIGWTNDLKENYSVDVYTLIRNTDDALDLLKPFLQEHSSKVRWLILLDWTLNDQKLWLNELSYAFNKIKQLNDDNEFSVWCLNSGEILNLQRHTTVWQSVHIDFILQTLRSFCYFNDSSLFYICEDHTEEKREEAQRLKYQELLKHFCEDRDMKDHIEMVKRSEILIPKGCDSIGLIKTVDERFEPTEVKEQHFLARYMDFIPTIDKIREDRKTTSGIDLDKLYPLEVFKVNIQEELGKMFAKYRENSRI
# T1 sequence (Q02647 whole entry, chain 4 of 4): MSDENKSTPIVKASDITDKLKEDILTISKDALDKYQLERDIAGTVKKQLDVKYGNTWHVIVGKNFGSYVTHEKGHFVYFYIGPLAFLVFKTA
# [2] = molecular target: T2, yeast dynein^∆ICN complex (Pac11 lacking its N-terminal 43 residues) (S. cerevisiae, UniProt P36022 1-4092; P40960 44-533; Q04949 1-312; Q02647 1-92, JF503-, JFX549- or JFX646-HaloTag ligand on the HaloTag); assay: as above; details: both partners purified
# T2 construct: dynein heavy chain Dyn1, S. cerevisiae; dynein intermediate chain Pac11, S. cerevisiae, N-terminal 43 residues deleted; dynein light-intermediate chain Dyn3, S. cerevisiae; dynein light chain Dyn2, S. cerevisiae; also called Pac11^∆ICN dynein; source: S. cerevisiae, all genes overexpressed from GAL1p; purified (IgG sepharose, TEV elution); not shown: 8His (also printed 6xHis), N-terminal, …
# [3] = molecular target: B1; assay: mass photometry; yeast proteins; mixed 1:1 at 50-100 nM each, 1-2 min, measured at 10-20 nM; 50 mM Tris pH 8.0, 150 mM K-acetate; details: both partners purified
# [4] = molecular target: the molecule itself; assay: as above
# [5] = molecular target: the molecule itself; assay: mass photometry; human proteins; preincubated at 0.5-1 µM for 5 min at room temperature, 1:1 molar ratio, measured at 5-20 nM; 90 mM HEPES-KOH pH 7.4, 50 mM K-acetate
# [6] = molecular target: B2; assay: as above; details: both partners purified
binder,measurement,setting,value
"full-length yeast Pac1 with C-terminal FLAG-SNAPf (natural protein, S. cerevisiae, UniProt P39946 1-494, looked up, Pac1, yeast homolog of LIS1, full length; also called WT Pac1; Pac1-SNAPf; source: S. cerevisiae, overexpressed from GAL1p; purified (IgG beads, TEV elution); not shown: 8xHis, N-terminal, cleaved; ZZ, N-terminal, cleaved; SNAPf, C-terminal, kept) MTNWQQQLPLTDTQKNELDKSVLRYLNWNYKQTVRHEHAQDYESVRHAIVTLSGFLLQESVDRQEFISNNDTSNESMVDIDELLLPKKWNSIVRLQKKIIELEQNTETLVSQIKDLNTQVSELAQFKPTTSNGTSAHNVLKWIPRNLPSCLINVESSVTSVKLHPNLPIVFVATDHGKLYAFDLFNYTIPLASLQSHTKAITSMDVLFTNYTNSSKKNYLVIVTASKDLQIHVFKWVSEECKFQQIRSLLGHEHIVSAVKIWQKNNDVHIASCSRDQTVKIWDFHNGWSLKTFQPHSQWVRSIDVLGDYIISGSHDTTLRLTHWPSGNGLSVGTGHEFPIEKVKFIHFIEDSPEIRFRTPSTDRYKNWGMQYCVSASRDRTIKIWEIPLPTLMAHRAPIPNPTDSNFRCVLTLKGHLSWVRDISIRGQYLFSCADDKSVRCWDLNTGQCLHVWEKLHTGFVNCLDLDVDFDSNVTPRQMMVTGGLDCKSNVFMR",binding result,[1],binds
same,binding result,[2],binds
same,stoichiometry N,[3],1 Pac1 dimer per Ndl1 dimer
same,stoichiometry N,[4],2
B1,binding result,[1],binds
same,stoichiometry N,[4],2
"yeast Ndl1^CC E64A R78A (domain or fragment, S. cerevisiae, UniProt Q06568 2-132, looked up, Ndl1, S. cerevisiae, residues 2-132, E64 and R78 changed to alanines; also called interface 2 mutant of Ndl1^CC; source: E. coli BL21-CodonPlus (DE3)-RIPL, purified) VPNLDLETAIQIISSLETQLSELEGATKEYENDLEQVISKLKSDLLESQQQNKCNKKQITDLAIQVDELENENIQLANKIETLQLESDRRLERNVLLEHELLDTKEALQKLRVSKEEATSGETRRNTRSLP",binding result,[1],binds
B2,stoichiometry N,[5],2
"full-length yeast Ndl1 with C-terminal FLAG-SNAPf (natural protein, S. cerevisiae, UniProt Q06568 1-189, looked up, JFX554-SNAP or JFX650-SNAP ligand on the SNAPf tag, Ndl1, yeast homolog of Ndel1, full length; also called Ndl1-SNAPf; source: S. cerevisiae, overexpressed from GAL1p; purified (IgG beads, TEV elution, SEC); not shown: SNAPf, C-terminal, kept; ZZ, C-terminal, cleaved; 8xHis, C-terminal, cleaved) MVPNLDLETAIQIISSLETQLSELEGATKEYENDLEQVISKLKSDLLESQQQNKCNKKQITDLEIQVDELENENIQLRNKIETLQLESDRRLERNVLLEHELLDTKEALQKLRVSKEEATSGETRRNTRSLPSQNKKMKLFKDTIKVSTTSSTLYLQNMAKTNNAARSHCNIPNTQITQSTVIATTSSV",binding result,[1],binds
"LIS1, wild type, as used in mass photometry (construct not told) (natural protein, human, UniProt P43034 1-410, looked up, LIS1, human; also called WT LIS1; source: Sf9 cells, purified) MVLSQRQRDELNRAIADYLRSNGYEEAYSVFKKEAELDVNEELDKKYAGLLEKKWTSVIRLQKKVMELESKLNEAKEEFTSGGPLGQKRDPKEWIPRPPEKYALSGHRSPVTRVIFHPVFSVMVSASEDATIKVWDYETGDFERTLKGHTDSVQDISFDHSGKLLASCSADMTIKLWDFQGFECIRTMHGHDHNVSSVAIMPNGDHIVSASRDKTIKMWEVQTGYCVKTFTGHREWVRMVRPNQDGTLIASCSNDQTVRVWVVATKECKAELREHEHVVECISWAPESSYSSISEATGSETKKSGKPGPFLLSGSRDKTIKMWDVSTGMCLMTLVGHDNWVRGVLFHSGGKFILSCADDKTLRVWDYKNKRCMKTLNAHEHFVTSLDFHKTAPYVVTGSVDQTVKVWECR",stoichiometry N,[6],1 LIS1 dimer per Ndel1 dimer
"yeast Nip100 coiled-coil 1 (Nip100^CC1, residues 97-377) with N-terminal eGFP (domain or fragment, S. cerevisiae, UniProt P33420 97-377, looked up, Nip100, yeast homolog of p150^Glued, coiled-coil 1, residues 97-377; also called GST-eGFP-Nip100^CC1; source: E. coli BL21-CodonPlus (DE3)-RIPL, purified (glutathione agarose, Ulp1 digest, SEC); not shown: GST, N-terminal, cleaved; SUMO, N-terminal, cleaved) EHSLLNGNAAQETIKNLQVKCESLASKLNKIKIENHELKTSVEKLSTNETVLLSKISRLDKLVKELKVENGNMKTHLDNFNHLLDASDSVMAPDLDKGTLLERSHLLQGLLDQTKLSYDKAMKVQEDLLEENTQLLEENAVLSKKISDLGLQLQQTNNTIGDLALQIEAQSKSSNIVDKLTNDNILLTSNIKALNNELEELQAKEKLDENLRITYEQLEQELRLQLSNLQSALENEKEIAGTYIEENSRLKATLESIEAKTSHKFQSLELKVNTLQEELYQ",binding result,[1],binds
